Source: publication PMC4428071, “Structural basis for epitope masking and strain specificity of a conserved epitope in an intrinsically disordered malaria vaccine candidate” (Scientific Reports, 2015)

B1: MSP2_(14-22) (peptide)
peptide: Ac-NAYNMSIRR-NH2
B2: MSP2_(13-22) (peptide)
peptide: Ac-NNAYNMSIRR-NH2
B3: MSP2_(14-23) (peptide)
peptide: Ac-NAYNMSIRRS-NH2
B4: MSP2_(11-23) (peptide)
peptide: Ac-FINNAYNMSIRRS-NH2
B5: MSP2_(15-22) (peptide)
peptide: Ac-AYNMSIRR-NH2
B6: MSP2_(15-23) (peptide)
peptide: Ac-AYNMSIRRS-NH2

Each binder was assayed against 6D8 scFv (mouse) (assay: ITC; Microcal ITC-200; MSP2 or peptide titrated into 6D8 scFv or 6D8 IgG).
6D8 scFv (mouse), sequence (heavy, as listed by the source, chain 1 of 2): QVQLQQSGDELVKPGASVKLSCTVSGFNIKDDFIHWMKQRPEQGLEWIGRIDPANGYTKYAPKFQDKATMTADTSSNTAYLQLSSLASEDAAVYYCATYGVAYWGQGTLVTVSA
6D8 scFv (mouse), sequence (light, as listed by the source, chain 2 of 2): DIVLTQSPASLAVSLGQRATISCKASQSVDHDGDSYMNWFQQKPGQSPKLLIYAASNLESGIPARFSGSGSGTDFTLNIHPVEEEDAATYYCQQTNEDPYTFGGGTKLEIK
For B1, the Kd was less than 5 nM.

Each binder was assayed against mouse monoclonal antibody 6D8 (mouse) (assay: SPR).
mouse monoclonal antibody 6D8 (mouse), sequence (heavy, as listed by the source, chain 1 of 2): as the sequence (heavy, as listed by the source, chain 1 of 2) above
mouse monoclonal antibody 6D8 (mouse), sequence (light, as listed by the source, chain 2 of 2): as the sequence (light, as listed by the source, chain 2 of 2) above
B1 showed a Kd of 6 nM. For B2, the Kd was 14 nM. With B3 the Kd was 16 nM. For B4, the Kd was 6 nM. B5 showed a Kd of 87 nM. B6 gave a Kd of 34 nM.
